± gives the uncertainty stated by the source.
Experiment: self-splicing fitness, log relative to wild type (ln ratio); higher = more splicing; Tetrahymena group I intron in knt gene, E. coli kanamycin selection, DiMSum; sequences stand for … in CUCUCU…GGAGGGAAAAGUUAUCAGGCAUGCACCUGGUAGCUAGUCUUUAAACCAAUAGAUUGCAUCGGUUUAAAAGGCAAGACCGUCAAAUUGCGGGAAAGGGGUCAACAGCCGUUCAGUACCAAGUCUCAGGGGAAACUUUGAGAUGGCCUUGCAAAGGGUAUGGUAAUAAGCUGACGGACAUGGUCCUAACCACGCAGCCAAGUCCUAAGUCAACAGAUCUUCUGUUGAUAUGGAUGCAGUUCACAGACUAAAUGUCGGUCGGGGAAGAUGUAUUCUUCUCAUAAGAUAUAGUCGGACCUCUCCUUAAUGGGAGCUAGCGGAUGAAGUGAUGCAACACUGGAGCCGCUGGGAACUAAUUUGUAUGCGAAAGUAUAUUGAUUAGUUUUGGAGUACUCGUGGUCG
Procedure, shortened: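 DiMSum derived fitness as the error-weighted combination of fold changes across replicates, kanamycin versus no kanamycin, normalised to wild type. E. coli BL21(DE3) held the library, which randomised all eight P1ex-region intron nucleotides within the knt kanamycin-resistance gene on pET-22b(+). Six replicate transformations grew overnight at 37°C or 30°C on LB agar with or without 25 μg/mL kanamycin, also containing 100 μg/mL carbenicillin, 50 μM IPTG and 0.2% rhamnose, and pooled colonies were amplicon-sequenced on an Illumina HiSeq 2500.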

| Sequence | self-splicing fitness (ln) (30 °C) | self-splicing fitness (ln) (37 °C) |
| --- | --- | --- |
| AAGAAGCAAUAUUACGGUUA | -0.783 ± 0.15 | -0.983 ± 0.12 |
| AAGAAGCAAUAUUACGUAGA | -2.64 ± 0.13 | -1.01 ± 0.11 |
| AAGAAGCAAUAUUACGUCUG | -0.345 ± 0.054 | 0.0995 ± 0.071 |
| AAGAAGCAAUAUUACGUGUG | -2.3 ± 0.09 | -0.663 ± 0.081 |
| AAGCAGCAAUAUUACGAAGU | -3.3 ± 0.13 | -1.34 ± 0.13 |
| AAGCAGCAAUAUUACGAAUU | -0.851 ± 0.069 | 0.12 ± 0.099 |
| AAGCAGCAAUAUUACGAGCC | -3.37 ± 0.34 | -1.2 ± 0.24 |
| AAGCAGCAAUAUUACGAGGC | -1.38 ± 0.13 | -2.17 ± 0.22 |
| AAGCAGCAAUAUUACGAGGU | -3.55 ± 0.16 | -2.65 ± 0.19 |
| AAGCAGCAAUAUUACGAUGG | -2.99 ± 0.13 | -1.84 ± 0.14 |
| AAGCAGCAAUAUUACGAUGU | -1.3 ± 0.06 | -0.566 ± 0.078 |
| AAGCAGCAAUAUUACGCACG | -1.15 ± 0.079 | -0.574 ± 0.095 |
| AAGCAGCAAUAUUACGCAUC | -2.72 ± 0.18 |  |
| AAGCAGCAAUAUUACGCCCU | -0.309 ± 0.14 | 0.0798 ± 0.18 |
| AAGCAGCAAUAUUACGCCGG | -1.52 ± 0.11 | -0.994 ± 0.17 |
| AAGCAGCAAUAUUACGCCUC |  | -1.22 ± 0.4 |
| AAGCAGCAAUAUUACGCCUU | -2.42 ± 0.16 | -1.35 ± 0.12 |
| AAGCAGCAAUAUUACGCGCG | -1.16 ± 0.082 | -0.105 ± 0.1 |
| AAGCAGCAAUAUUACGGAAC | -3.6 ± 0.3 |  |
| AAGCAGCAAUAUUACGGAAU | -3.08 ± 0.13 | -1.66 ± 0.11 |
| AAGCAGCAAUAUUACGGACA | -1.69 ± 0.16 | 0.0141 ± 0.11 |
| AAGCAGCAAUAUUACGGAGA | -2.7 ± 0.13 | -1.44 ± 0.13 |
| AAGCAGCAAUAUUACGGAGU | -3.69 ± 0.13 | -1.15 ± 0.1 |
| AAGCAGCAAUAUUACGGCCC | 0.22 ± 0.14 | 0.271 ± 0.17 |
| AAGCAGCAAUAUUACGGCGA | -0.328 ± 0.075 | 0.355 ± 0.094 |
| AAGCAGCAAUAUUACGGGAU | -3.63 ± 0.14 | -1.92 ± 0.1 |
| AAGCAGCAAUAUUACGGUGU | -1.85 ± 0.09 | -0.979 ± 0.12 |

| Sequence | self-splicing fitness (ln) (30 °C) | self-splicing fitness (ln) (37 °C) |
| --- | --- | --- |
| AAGCAGCAAUAUUACGGUUA | -0.142 ± 0.072 | 0.0491 ± 0.087 |
| AAGCAGCAAUAUUACGUAAA | -1.84 ± 0.087 | -0.803 ± 0.11 |
| AAGCAGCAAUAUUACGUACC | -1.17 ± 0.19 | -0.569 ± 0.22 |
| AAGCAGCAAUAUUACGUCCA | -0.662 ± 0.089 | -0.156 ± 0.1 |
| AAGCAGCAAUAUUACGUCGG | -2.24 ± 0.1 | -1.7 ± 0.17 |
| AAGCAGCAAUAUUACGUCUU | -1.66 ± 0.075 | -1.05 ± 0.071 |
| AAGCAGCAAUAUUACGUGCG | -0.989 ± 0.073 | -0.0742 ± 0.092 |
| AAGCAGCAAUAUUACGUGGG | -3.54 ± 0.13 | -1.36 ± 0.084 |
| AAGCAGCAAUAUUACGUGUC | -2.94 ± 0.15 | -2.01 ± 0.15 |
| AAGCAGCAAUAUUACGUUAU | -2.38 ± 0.089 | -1.21 ± 0.1 |
| AAGCAGCAAUAUUACGUUGC | -2.46 ± 0.099 | -3.24 ± 0.21 |
| AAGCAGCAAUAUUACGUUUG | -3.04 ± 0.13 | -1.73 ± 0.14 |
| AAGCAGCAAUAUUACGUUUU | -3.3 ± 0.14 | -2.52 ± 0.14 |
| AAGGAGCAAUAUUACGAAGG | -3.3 ± 0.28 | -2.99 ± 0.41 |
| AAGGAGCAAUAUUACGAAGU | -3.53 ± 0.43 | -2.57 ± 0.36 |
| AAGGAGCAAUAUUACGACAA | -2.38 ± 0.2 | -2.16 ± 0.33 |
| AAGGAGCAAUAUUACGACAU | -2.282 ± 0.02 | -1.6 ± 0.037 |
| AAGGAGCAAUAUUACGACCU | -0.0623 ± 0.16 | -0.475 ± 0.2 |
| AAGGAGCAAUAUUACGAGAA | -3.76 ± 0.42 | -2.22 ± 0.24 |
| AAGGAGCAAUAUUACGAGAC | -2.03 ± 0.44 |  |
| AAGGAGCAAUAUUACGAGUG |  | -2.2 ± 0.4 |
| AAGGAGCAAUAUUACGAGUU | -3.53 ± 0.17 | -1.65 ± 0.12 |
| AAGGAGCAAUAUUACGAUAC | -3.49 ± 0.39 | -3.25 ± 0.37 |
| AAGGAGCAAUAUUACGAUAG | -4.31 ± 0.46 | -2.87 ± 0.43 |
| AAGGAGCAAUAUUACGCAAA | -3.1 ± 0.3 | -2.7 ± 0.32 |
| AAGGAGCAAUAUUACGCACA |  | -1.89 ± 0.47 |
| AAGGAGCAAUAUUACGCCGU | -1.14 ± 0.27 | -1.16 ± 0.37 |

| Sequence | self-splicing fitness (ln) (30 °C) | self-splicing fitness (ln) (37 °C) |
| --- | --- | --- |
| AAGGAGCAAUAUUACGCGAA | -1.94 ± 0.22 | -1.39 ± 0.23 |
| AAGGAGCAAUAUUACGCGCC | -2.85 ± 0.24 | -1.19 ± 0.17 |
| AAGGAGCAAUAUUACGCGUC | -2.96 ± 0.37 |  |
| AAGGAGCAAUAUUACGCUAA | -2.97 ± 0.23 | -1.51 ± 0.2 |
| AAGGAGCAAUAUUACGGCAA | -2.54 ± 0.39 |  |
| AAGGAGCAAUAUUACGGCAU | -2.77 ± 0.18 | -2.05 ± 0.23 |
| AAGGAGCAAUAUUACGGCCU | -1.62 ± 0.12 | -0.486 ± 0.12 |
| AAGGAGCAAUAUUACGGCGC | -2 ± 0.27 | -2.34 ± 0.48 |
| AAGGAGCAAUAUUACGGGAA | -2.09 ± 0.2 | -3.29 ± 0.24 |
| AAGGAGCAAUAUUACGGUGG | -3.21 ± 0.15 | -2.45 ± 0.27 |
| AAGGAGCAAUAUUACGUACC | -3.01 ± 0.33 | -3.19 ± 0.41 |
| AAGGAGCAAUAUUACGUAGA | -3.27 ± 0.26 | -1.46 ± 0.18 |
| AAGGAGCAAUAUUACGUAUU | -2.95 ± 0.12 | -2.34 ± 0.15 |
| AAGUAGCAAUAUUACGAAGU | -3.02 ± 0.2 | -1.9 ± 0.18 |
| AAGUAGCAAUAUUACGAGCC | -2.87 ± 0.22 | -1.34 ± 0.25 |
| AAGUAGCAAUAUUACGCACU | -0.686 ± 0.095 | -0.854 ± 0.14 |
| AAGUAGCAAUAUUACGCAGA | -4.11 ± 0.24 | -1.54 ± 0.1 |
| AAGUAGCAAUAUUACGCAGU |  | -1.76 ± 0.19 |
| AAGUAGCAAUAUUACGCCGC | -3.12 ± 0.38 |  |
| AAGUAGCAAUAUUACGCCUA | -0.227 ± 0.11 | -0.477 ± 0.12 |
| AAGUAGCAAUAUUACGCCUG | -0.259 ± 0.14 | -0.00805 ± 0.14 |
| AAGUAGCAAUAUUACGCGCC | -0.381 ± 0.2 | -0.0421 ± 0.23 |
| AAGUAGCAAUAUUACGCGGU | -2.47 ± 0.31 | -2.59 ± 0.39 |
| AAGUAGCAAUAUUACGCGUG | -0.856 ± 0.067 | -0.191 ± 0.092 |
| AAGUAGCAAUAUUACGCUAU | -4.06 ± 0.35 | -1.9 ± 0.17 |

— the supplement of paper PMC7877785
